Assays:
Aubergine (Aub) = molecular target: T1, Aubergine (Aub) (Drosophila melanogaster, UniProt O76922 SEQ:1-866); test: RNA cloned and sequenced from Aub immunoprecipitate of ovary extract; 5'U; conditions: tags: none; endogenous RNP immunopurified from ovary lysate
T1 sequence: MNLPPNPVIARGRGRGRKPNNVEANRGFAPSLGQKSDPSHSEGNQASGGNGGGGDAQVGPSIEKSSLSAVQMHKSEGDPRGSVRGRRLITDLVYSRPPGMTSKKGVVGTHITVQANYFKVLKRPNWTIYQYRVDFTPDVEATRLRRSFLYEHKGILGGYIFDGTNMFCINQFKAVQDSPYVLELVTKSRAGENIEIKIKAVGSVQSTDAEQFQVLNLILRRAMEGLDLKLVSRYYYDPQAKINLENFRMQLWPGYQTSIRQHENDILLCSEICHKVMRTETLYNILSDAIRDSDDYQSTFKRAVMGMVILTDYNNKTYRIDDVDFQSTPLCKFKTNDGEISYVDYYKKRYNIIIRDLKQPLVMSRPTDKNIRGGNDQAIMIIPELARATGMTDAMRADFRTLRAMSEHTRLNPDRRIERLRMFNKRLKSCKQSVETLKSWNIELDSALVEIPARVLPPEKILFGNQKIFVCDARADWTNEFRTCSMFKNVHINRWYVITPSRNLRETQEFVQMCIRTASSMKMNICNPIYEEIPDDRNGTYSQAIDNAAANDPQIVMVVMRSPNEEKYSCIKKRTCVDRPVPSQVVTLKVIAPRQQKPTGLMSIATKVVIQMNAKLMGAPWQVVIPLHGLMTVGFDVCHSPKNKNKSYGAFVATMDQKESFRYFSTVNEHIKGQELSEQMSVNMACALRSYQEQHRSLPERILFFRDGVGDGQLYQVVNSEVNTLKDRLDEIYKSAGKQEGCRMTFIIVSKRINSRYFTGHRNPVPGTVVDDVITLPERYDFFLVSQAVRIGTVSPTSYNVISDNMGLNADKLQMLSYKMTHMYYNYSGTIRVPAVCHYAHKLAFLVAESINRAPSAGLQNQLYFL
Experimental: (§1) Ovaries were dissected into ice cold PBS, flash frozen in liquid nitrogen and stored at −80 degrees. Ovary extract was prepared in Lysis buffer (20 mM HEPES-NaOH pH 7.0, 150 mM NaCl, 2.5 mM MgCl2, 250 mM Sucrose, 0.05% NP40, 0.5% Triton X-100. 1× Roche-Complete EDTA free) using a glass dounce homogenizer. Extracts were cleared by several spins at 14000 rpm. Extracts (10 microgram/microliter) were incubated with primary antibodies (1:50) for 4 h at 4 degrees per ml of extract. Fifteen microliters of Protein-G Sepharose (Roche) were added and mixtures were further incubated for 1 h at 4 degrees. Beads were washed 4 times in lysis buffer. RNA extraction from beads and 5′ labeling of RNAs was done as described in (Aravin et al., 2006)

Argonaute 3 (Ago3) = molecular target: T2, Argonaute 3 (Ago3) (Drosophila melanogaster, UniProt Q7PLK0 SEQ:1-867); test: RNA cloned and sequenced from Ago3 immunoprecipitate of ovary extract; A at position 10; conditions: tags: none; endogenous RNP immunopurified from ovary lysate
T2 sequence: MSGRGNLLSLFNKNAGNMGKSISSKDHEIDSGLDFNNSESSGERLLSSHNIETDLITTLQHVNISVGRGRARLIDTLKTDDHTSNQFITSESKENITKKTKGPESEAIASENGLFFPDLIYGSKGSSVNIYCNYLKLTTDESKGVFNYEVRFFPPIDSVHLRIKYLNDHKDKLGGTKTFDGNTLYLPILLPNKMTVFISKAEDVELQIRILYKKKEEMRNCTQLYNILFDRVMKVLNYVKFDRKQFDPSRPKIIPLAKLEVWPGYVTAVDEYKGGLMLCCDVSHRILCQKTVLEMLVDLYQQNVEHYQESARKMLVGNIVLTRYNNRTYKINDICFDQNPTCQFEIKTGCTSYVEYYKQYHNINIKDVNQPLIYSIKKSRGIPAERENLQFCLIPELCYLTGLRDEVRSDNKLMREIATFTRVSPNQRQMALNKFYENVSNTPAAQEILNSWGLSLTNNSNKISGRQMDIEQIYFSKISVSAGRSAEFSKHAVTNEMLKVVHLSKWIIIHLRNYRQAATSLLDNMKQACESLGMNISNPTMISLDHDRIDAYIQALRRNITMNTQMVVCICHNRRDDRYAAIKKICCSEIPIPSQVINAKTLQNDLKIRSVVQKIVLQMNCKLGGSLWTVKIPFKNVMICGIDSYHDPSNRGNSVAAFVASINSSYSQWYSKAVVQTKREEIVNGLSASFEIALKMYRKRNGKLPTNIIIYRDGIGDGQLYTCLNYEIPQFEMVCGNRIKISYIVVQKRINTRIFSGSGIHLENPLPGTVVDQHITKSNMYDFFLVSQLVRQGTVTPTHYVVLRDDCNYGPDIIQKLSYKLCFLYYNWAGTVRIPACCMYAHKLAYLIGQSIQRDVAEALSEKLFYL
Experimental: as §1

UACGCAGAGGCCUAAGUAAAUAGUC (ssRNA) [roo antisense piRNA]
binding result (Aubergine (Aub)): binds

CCUCUGCGUAGGCCAUUUACUUUAAG (ssRNA) [roo sense piRNA]
binding result (Argonaute 3 (Ago3)): binds
